Laboratory results published in the nanobody polyreactivity screen of Harvey et al. (2022).

Assay: yeast display, Sf9 membrane polyspecificity reagent, FACS + sequencing; frameworks hold sequencing errors
Procedure, shortened: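 A synthetic nanobody library was expressed on Saccharomyces cerevisiae BJ5465 by galactose induction for 36–48 hours. The library was stained for 1 hour at 4 °C with 10% biotinylated, detergent-solubilized Sf9 membrane reagent and enriched with streptavidin microbeads before FACS. Low and high (top ~1%) gates were set on anti-HA fluorescence for expression and streptavidin fluorescence for reagent binding, and each polyreactivity label reflects the gate of origin.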

Sequence	polyreactivity (PSR sort gate)
QVHLVESGGGLVQAGGRLRLSCAASGYIFSVYAMGLYRQAPGKERELVAAISSGGSTYYADSLKGRLTISRDNAKYTVYLQMNSLKPEDTAVYYCAAESVYVYWYYVDYDYWGQGTQVTVSS	high polyreactivity
QVHLVESGGGLVQAGGSHRLSCAASGLNFPPNAMGWYRQAPAKESELVASITRSGGSTYYADSVKGRFTISRDNAKNTVYLQMNSLKRDDTAVYYCAAYLDTSRYGVLYDYWGQGTQVTVSS	low polyreactivity
QVHLVESGGGLVQAGGSIRLSCAASGFIFGSYAMGWYRPAPGKERELVAVISASGGGTYYADSVKGRFTISRDNAKYTVYLQMNSLKPEDTAVYYCAAKGVRGFAGYGYWGQGTQVTVSS	high polyreactivity
QVHLVESGGGLVQAGGSLPLSCAASGIIFGGYDMGWYRPAPGIERELVAAISWSGGSTYYADSVKGRFTISRDNAKNTVYLPMNSLKPEDTAVYYCAAAYYAPTRVYYYWGQGTQVTVSS	low polyreactivity
QVHLVESGGGLVQAGGSLRISCAASGLTFQRYAMGWYRQAPGKERELVASITGNGGSTYYADSVKGRFTISRDNAQNSVYLQMNSLKPEDTAVFYCNARRYVRTSQQPLYDYWGQGTQVTVSS	high polyreactivity
QVHLVESGGGLVQAGGSLRLICAASGRILYLYAMGWYRQAPGKERELVARISQRDGSTYYADSVKGRFTISRDNAKNTVYLQMNSLKPEDTAVYYCNADFYLGSYGYSYDYWGQGTQVTVSS	low polyreactivity
QVHLVESGGGLVQAGGSLRLICAASGSIFRRYAMGWYRQAPGKERELVASISSRGTRTYYADSVTWRFTISRDNAKNTVYLQMNSLKPEDTAVYYCAASYYTPYDYLGQGTQVTVSS	high polyreactivity
QVHLVESGGGLVQAGGSLRLSCAASGDTFVKYAMGWYRQAPGKERELVAAISSGGRTYYADSVKGRFTISRDNAKNTVYLQMNSLKPEDTAVYFCNAVRPYRLASYDYWGQGTQVTVSS	high polyreactivity
QVHLVESGGGLVQAGGSLRLSCAASGFIFDFNTMGWYRQAPGKETEFVAAISGSGGRTYYADSVKGRFTISRDNAKNTVYLQMNSLKPEDTAVYYCAAYKRYYYGYDYWGQGTQVTVSS	high polyreactivity
QVHLVESGGGLVQAGGSLRLSCAASGFIFSVYAMGWYRQAPGKERELVAAINRSGSNTYYADSVKGRFTISRDNAKNTVYLQMNSLKPEDTAVYYCATLQGFWYYPPYIKTVQYGYWGQGTQVTVSS	high polyreactivity
QVHLVESGGGLVQAGGSLRLSCAASGFIFWENGMGWYRQAPGKERELVAAISSGGGRTYYADSVKGLFTISRDNAKNTVYLQMNSLKPEDTAFYYCNRARYYREFDYWGQGTQVTVSS	high polyreactivity
QVHLVESGGGLVQAGGSLRLSCAASGFTFDYNAMGWYRQAPGKEMELVAAISGSGGSTYYADSVKGRFTISRDNAKNTVYLQMNSLKPEDSSVYYCNAGRVTRRDTFDYWGQGTQVTVSS	high polyreactivity
QVHLVESGGGLVQAGGSLRLSCAASGFTFFYYAMGWYRPAPGKERELVAAINSGDNTNYADSVKGRFTISRDNAKNTVYLLMNSLIPEDTAVYYCAAQDYARGVVPGRRAMGYWGQGTQVSVSS	high polyreactivity
QVHLVESGGGLVQAGGSLRLSCAASGFTFGVYAMGWYRQAPGKERELVAAISRRGTSTYYADSVKGRFTISRDTAKYTVYLQMNSLKPEDTAVYYCNARRYQVTVDHWGQGTQVTVSS	high polyreactivity
QVHLVESGGGLVQAGGSLRLSCAASGFTFRGYAMGWYRQAPGTERELVAAVSGSGGRTHYADSVKGRFTISRDNAKNTVYLQMNSLKPEDTAVYYCNARGRASATGRRGRPDPFGYWGQGTQVTVSS	high polyreactivity
QVHLVESGGGLVQAGGSLRLSCAASGFTFRRNAMGWYRQAPGKERELVAAITRSGGVTYYADSVKGRFTISRDNAKNTVYLQMNSMKPEDTAVYYCATQARLYGGYDRYAGSYDYWGQGTQVTVSS	high polyreactivity
QVHLVESGGGLVQAGGSLRLSCAASGFTFSSNAMGWYRQAPGKERELVADISFNSTSTYYADSVKGRFTISRDNAKNTVYLQMNSLKPEDTAVYYCAADVPRVQSEPEYDYWGQGTQVTVSS	low polyreactivity
QVHLVESGGGLVQAGGSLRLSCAASGFTFSYYAMGWYRQAPGKERELVAVISDRGGITYYADSVKGRFTISRDNAKNTVYLQMISLKPEDTAVYYCAAQNPRYNYRYYYWGQGTQVTVSS	low polyreactivity
QVHLVESGGGLVQAGGSLRLSCAASGFTITYNAMGWYRQAPGKEREFVAAITNNGSTYYADSVKGRFTISRDNAKNSVYLQMKSLKPEDTAVYYCAVDRGYYDEYNYWGQGTHVTVSS	low polyreactivity
QVHLVESGGGLVQAGGSLRLSCAASGGTINRYAMGWSRQAPGKERELVAAITYSGGRTYYADSVKGRFTISRDNAKNTVYLQMNSLKPEDTAVYYCAARVGKIISDSWGQGTQVTVSS	high polyreactivity
QVHLVESGGGLVQAGGSLRLSCAASGIIFGRNVMGWYRQAPGKERELVAAISSSGGRTYYADSVKGRFTISRDNAKNTVYLQMNSLNPEVTAVYYCAADEVTKKNSFPRIMDYWGQGTQVTVSS	high polyreactivity
QVHLVESGGGLVQAGGSLRLSCAASGIIFHYYAMGWYRQAPGKERALVATMTSGGSTYYADSVKGRFTISRDNAKNTVYLQMNSLKPEDSAVYYCAATYGGSVFEYDYWGQGTQVTVSS	low polyreactivity

Sequence	polyreactivity (PSR sort gate)
QVHLVESGGGLVQAGGSLRLSCAASGIIFYWNPMGWYRQAPGKERELVAAISWSGGSTYYADSVKGRFTISRDNAKNTVYLQMNSLKPEDTAVYYCNAVTTYYPQFRPGAIPGVGYGFWGQGTQVTVSS	low polyreactivity
QVHLVESGGGLVQAGGSLRLSCAASGILRLNAMGWYRQAPGKEREFVATISRSGGITYYADSVKGRFTISRDNAKNTVYLQMNSLKPEDTAVYYCAKGGYSLYGYWGQGTQVTVSS	high polyreactivity
QVHLVESGGGLVQAGGSLRLSCAASGITFAWYAMGWYRQAPGKERELVAAISDRGGSTYYADSVKGRFTMSRDNAKNTVDLQMNSLKPEETAVYYCAADYRYYWRSGASSRMDYWGQGTQVTVSS	high polyreactivity
QVHLVESGGGLVQAGGSLRLSCAASGITFNIYTLGWYRQAPGKEREFVATISSSGGGTYYADSVKGRFTISRDNSKNTVYFQMNSLKPEDTAVYYCARYGIGADGYDYWGQGTQVTVSS	low polyreactivity
QVHLVESGGGLVQAGGSLRLSCAASGITFWGNAMGWYRHAPGKEREFVARINWSGGRTYYAESVKGRFTISRDNAKITVYLQMKSLKPEDTAVYYCAATSLIYGYRTYVYWGQGTQVTVSS	high polyreactivity
QVHLVESGGGLVQAGGSLRLSCAASGITFYGNTMGWYRQTPGKERELVARISSGGSTNYAESVKGRFTISRVNAKNTVYLQMNSLKPEDTAVSYCAVKQYGFIWSGYGYDYWGQGSQVTVSS	high polyreactivity
QVHLVESGGGLVQAGGSLRLSCAASGITFYRFVLGGYRQAPGKEWELDAAISRTGGYTYYADSVKGRFTLSRDNAKNTVYLQMNSLKPVDTAVYYCAAATSTGIYDYWGQGTQVTGSS	high polyreactivity
QVHLVESGGGLVQAGGSLRLSCAASGITIYVYAMGWYRQAPGKEREFVAAINGRGGSPYYADSVKGRFTISRDNAKNTVYLQMNSLKPEDTAVFYCAAESLAIYYKYPPYDYWGQGSQVTVSS	high polyreactivity
QVHLVESGGGLVQAGGSLRLSCAASGLIFFKYAMGWYRQETGKESELVAANSSSGGRTSYADSVKGRFTISRDNAKNTVYLQMNSEKPEDTAVYYCNVKPSASYIRYNYRYYYWGQGTHVTVSS	high polyreactivity
QVHLVESGGGLVQAGGSLRLSCAASGLIFGKNAMGWYRQPPGKERELVAAISSGESTYADSVKWRFTISRDNAKNTVYLQMNSLKPEDTAVYYCNAEVLRESYDRHPTTDYYWGQGTQVTVSS	low polyreactivity
QVHLVESGGGLVQAGGSLRLSCAASGLIFVFYAMGWYRQAPGKERELVAAISRSGTSTYADSVKGRFTISRDNAKNTVYLQMNSLKPEDTAVYYCNAYRYYSPDGYWGQGTHVTVSS	low polyreactivity
QVHLVESGGGLVQAGGSLRLSCAASGLILPYYAMGWYRQARGKERELVAAISRTGGRTSYADSVKGRFTISRDNAKNTVYLQMNSLKPEDTAVYYCAAVGQSGGRRYDYWGQGTQVTVSS	high polyreactivity
QVHLVESGGGLVQAGGSLRLSCAASGLTFPSNAMGWYRQAPGKERELVAAISKRGGRTYYADSVKGRFTISRDNAKNSVYLQMNSLKPEDTAVYYFATPYAYPGTVQYAGYNYWGQGTQVTVSS	high polyreactivity
QVHLVESGGGLVQAGGSLRLSCAASGLTFYSNAMGWYRQAPGKERELVARISTGGSTYADSVKGRFTISRDNAKNTVYLQMNSLKPEDTAVYYCAKLPPRGIDDEYWGQGNQVTVSS	low polyreactivity
QVHLVESGGGLVQAGGSLRLSCAASGRIFAYYTMGWYRQAPGKERELVAAITSRGGSTYYADSVKGRFTISRDNAKKTVYLQMNSLKPEDTAVYYCADMRPSNVDYWGQGTQVTVSS	high polyreactivity
QVHLVESGGGLVQAGGSLRLSCAASGRIFKDNAMGWYRQAPGKERELVATIDSGGDTNYADSVKGRFTISRDNAKNTVYLQMNSLKPEDTAVYYCNTEGFLSAVYAFGYWGQGTQVTVSS	low polyreactivity
QVHLVESGGGLVQAGGSLRLSCAASGRIFNQYGMGWSRQAPGKERELVAAIRSGDSTNYADSVKGRFTISRDNAKNTVYLQMNSLKPEDTAVYYCARDRPGDYAGYDYWGQGTQVTVSS	low polyreactivity
QVHLVESGGGLVQAGGSLRLSCAASGRIFRFYAMGWYRQAPGKERELVADISRRGGSTYYADSVKGRFTISRDNAKNTVYLQMNSLKPEDTAVYYCNARWYRTGSTYHEDYWGQGTQVTVSS	high polyreactivity
QVHLVESGGGLVQAGGSLRLSCAASGRIFSRNAMGRYRQAPGKERELVAAISSDGNTNYADSVKGFTISRDNAKNTVYLQMNSLKPESTAVYYCAARFGYTAYGYWGQGTQVTVSS	low polyreactivity
QVHLVESGGGLVQAGGSLRLSCAASGRIFYYNAMGWYRQAPGKERELVAAISSAGSTYYADSVKGRFTLSRDNAKNTVYLQMNSLKPEDTAVYYCNAGKHERMDWGQGTQVTVSS	high polyreactivity
QVHLVESGGGLVQAGGSLRLSCAASGRIFYYYAMGWYRQAPGKEREFVAAIRISGGSTNYADSVKGRFTISRDNAKNTVYLQMNSLKPEDTAVYYCAARSKYSGIRRAYDYWGQGTQVTVSS	high polyreactivity
